Test results: patent publication US20210309747A1 (I MAB BIOPHARMA US, published 2021)
Residue numbers refer to the chain shown, from its start. Like-named read-outs stand apart in the source and are kept apart here.

B1: B12-01 (antibody, V domains shown)
VH: QVQLLESGGGLVQPGGSLRLSCAASGFTFSSYWMSWVRQAPGKGLEWVANIKQDGSEKYYVDSVKGRFTISRDNAKNSLYLQMNSLRAEDTAVYYCARVALWDDAFDIWGQGTMVTVSS
VL: DIQMTQSPSTLSASVGDRVIITCRASRGISSWLAWYQQKPGKAPNLLISKASSLESGVPSRFSGSGSGTDFTLTISSLQPEDFATYYCQQSSSIPLTFGGGTKVEIK
notes: Variant of B12 with serine at the C-terminus of VH and DIQM at the N-terminus of VL; captured on protein A and detected with anti-human IgG Fc, so a human IgG; also called B12-01 antibody
B2: B12 (antibody, V domains shown)
VH: B1 VH with S119A
VL: B1 VL with D1N, M4L
notes: Fab phage clone converted into full-length IgG; also called 67C1-9

Legend:
[1] = molecular target: rat PDL1-His (rat, UniProt D4AE25 19-239); test: ELISA, PDL1-His coated at 0.5 µg/ml
rat PDL1-His, sequence (D4AE25 entry or part of it limits assumed): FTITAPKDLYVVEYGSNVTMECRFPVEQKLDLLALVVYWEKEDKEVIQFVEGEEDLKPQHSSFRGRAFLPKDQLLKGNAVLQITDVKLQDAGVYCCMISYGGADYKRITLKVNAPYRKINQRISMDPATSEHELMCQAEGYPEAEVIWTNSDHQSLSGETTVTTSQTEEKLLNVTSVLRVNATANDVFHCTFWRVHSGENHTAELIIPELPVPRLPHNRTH
Description: (§1) Human, cyno, rat and mouse PDL1-His proteins were coated at 0.5 μg/ml at 4° C. overnight. […] The plates were washed and then incubated with HRP conjugated mouse anti-human IgG Fc antibody followed by development with TMB substrate and analyzed by spectrophotometer at OD 450 nm.

[2] = molecular target: T1, mouse PDL1-His (mouse, UniProt Q9EP73 19-238, limits assumed); test: ELISA, PDL1-His coated at 0.5 µg/ml
T1 construct: not shown: His tag
T1 sequence (Q9EP73 19-238 limits assumed): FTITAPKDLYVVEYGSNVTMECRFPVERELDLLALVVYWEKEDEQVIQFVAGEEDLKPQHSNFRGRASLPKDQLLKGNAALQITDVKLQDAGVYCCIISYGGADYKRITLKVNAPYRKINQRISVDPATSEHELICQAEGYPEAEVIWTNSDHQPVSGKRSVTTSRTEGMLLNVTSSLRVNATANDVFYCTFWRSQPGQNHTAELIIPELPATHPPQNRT
Description: as §1

[3] = molecular target: cyno PDL1-His (cyno, UniProt G7PSE7 19-238); test: ELISA, plate coated with PDL1-His at 0.5 ug/ml, detection with HRP mouse anti-human IgG Fc, OD 450nm
cyno PDL1-His, sequence (G7PSE7 entry or part of it limits assumed): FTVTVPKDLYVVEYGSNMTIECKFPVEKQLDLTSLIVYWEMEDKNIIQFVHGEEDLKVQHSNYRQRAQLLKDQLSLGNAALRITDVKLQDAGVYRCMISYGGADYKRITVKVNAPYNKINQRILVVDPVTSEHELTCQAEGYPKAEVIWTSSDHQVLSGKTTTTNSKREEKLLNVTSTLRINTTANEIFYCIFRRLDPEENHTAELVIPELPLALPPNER
Description: as §1

[4] = molecular target: T2, His-tagged human PD-L1 (human, UniProt Q9NZQ7 19-238, limits assumed); test: as above
T2 construct: also called Human PD-L1 protein; Human PDL1-His; not shown: His tag
T2 sequence (Q9NZQ7 19-238 limits assumed): as the sequence (G7PSE7 entry or part of it limits assumed) above, with T33A, S34A, N62S, Q68R, R82Q, L173F, A185T, I192T, L215H counted along it
Description: as §1

[5] = molecular target: T3, human PD-L1 on Raji cells (human, UniProt Q9NZQ7 19-290); test: cell-based or functional assay
T3 sequence (Q9NZQ7 19-290): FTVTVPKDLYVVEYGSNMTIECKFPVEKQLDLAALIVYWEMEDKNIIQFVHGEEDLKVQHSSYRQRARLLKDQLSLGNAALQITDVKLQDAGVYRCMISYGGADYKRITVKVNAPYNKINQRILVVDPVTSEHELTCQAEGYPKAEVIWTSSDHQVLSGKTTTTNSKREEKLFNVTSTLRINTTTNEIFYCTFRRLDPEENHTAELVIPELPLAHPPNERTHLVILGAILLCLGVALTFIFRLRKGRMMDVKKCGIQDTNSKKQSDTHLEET

[6] = molecular target: T3, human PD-L1 on Raji cells; test: flow cytometry blocking assay on Raji-PDL1 cells; blocked ligand: biotinylated Avi- and His-tag human PD1 protein at 3 ug/mL, Streptavidin-PE, MFI
Description: Raji cells over-expressing human PDL1 were seeded into the 96 well plate at a concentration of 1×10⁵ cells per well. […] Fluorescence was measured by flow cytometry and analyzed by Flowjo software to determine the mean fluorescence intensities (MFI).

[7] = molecular target: T2, His-tagged human PD-L1; test: SPR, Biacore T200; B12-01 captured on protein A chip, human PD-L1 25 nM-1.56 nM injected
Source text: (§2) The ligand was allowed to associate for 120 s and dissociate for 600 s.

[8] = molecular target: T2, His-tagged human PD-L1; test: Biacore T200 SPR, B12-01 captured on a protein A chip, human PD-L1-His injected at 25 nM-1.56 nM
Source text: as §2

[9] = molecular target: T3, human PD-L1 on Raji cells; test: cell-based or functional assay; remark: listed apart in the source
[10] = molecular target: T3, human PD-L1 on Raji cells; test: cell-based or functional assay; remark: listed apart in the source
[11] = molecular target: T4, recombinant human PD-L1 (Sino Biological, Cat#: 10084-H08H) (human, UniProt Q9NZQ7 19-238); test: ELISA, plate coated with human PD-L1 at 1 ug/ml, detection with goat anti-human IgG-HRP, OD450
T4 construct: Bought protein; also called human PD-L1 protein
T4 sequence (Q9NZQ7 19-238 limits assumed): as the sequence (G7PSE7 entry or part of it limits assumed) above, with T33A, S34A, N62S, Q68R, R82Q, L173F, A185T, I192T, L215H counted along it
Description: To evaluate antigen binding activity, the antibodies were subjected to ELISA test. Briefly, microtiter plates were coated with human PD-L1 protein at 1 μg/ml in PBS, 100 μl/well at 4° C. overnight, then blocked with 100 μl/well of 1% BSA. 4-fold dilutions of humanized antibodies starting from 10 μg/ml were added to each well and incubated for 1-2 hours at RT. The plates were washed with PBS/Tween and then incubate with goat-anti-human IgG antibody conjugated with Horse Radish Peroxidase (HRP) for 1 hour at RT. After washing, the plates were developed with TMB substrate and analyzed by spectrophotometer at OD 450 nm.

Binder	binding result [1]	binding result [2]	EC50 (read off the curve) [3] [nM]	EC50 (read off the curve) [4] [nM]	EC50, NF-AT-luciferase activity, PD-1 Jurkat cells with Raji-PD-L1 cells [5] [nM]	EC50 [6] [nM]	Kd [7] [nM]	koff [8] [s⁻¹]	kon [8] [M⁻¹ s⁻¹]	EC50 (NF-AT-luciferase RLU) [9] [nM]	EC50 (NF-AT-luciferase RLU) [10] [nM]	EC50 [11] [nM]
B1	no binding	no binding	~0.04	~0.03	0.098	0.14	0.948	0.000795	838000	–	–	–
B2	–	–	–	–	–	–	–	–	–	0.545	0.439	0.142
